{"source": "paper PMC8545111", "about": "“Molecular Basis of the Versatile Regulatory Mechanism of HtrA-Type Protease AlgW from Pseudomonas aeruginosa” (mBio, 2021)", "binders": {"B1": {"name": "decapeptide SVRDELRWVF (MucE C-terminal tail) (peptide)", "peptide": "SVRDELRWVF", "notes": "C-terminal decapeptide of the periplasmic protein MucE of Pseudomonas aeruginosa; also called C-terminal decapeptide of MucE"}}, "experiment_in_all_cases": "cell-based or functional assay", "key": {"AlgW-E266A": {"biological_target": "T1, AlgW-E266A (Pseudomonas aeruginosa, UniProt Q9HVX1 30-389, E266A)", "T1 sequence": "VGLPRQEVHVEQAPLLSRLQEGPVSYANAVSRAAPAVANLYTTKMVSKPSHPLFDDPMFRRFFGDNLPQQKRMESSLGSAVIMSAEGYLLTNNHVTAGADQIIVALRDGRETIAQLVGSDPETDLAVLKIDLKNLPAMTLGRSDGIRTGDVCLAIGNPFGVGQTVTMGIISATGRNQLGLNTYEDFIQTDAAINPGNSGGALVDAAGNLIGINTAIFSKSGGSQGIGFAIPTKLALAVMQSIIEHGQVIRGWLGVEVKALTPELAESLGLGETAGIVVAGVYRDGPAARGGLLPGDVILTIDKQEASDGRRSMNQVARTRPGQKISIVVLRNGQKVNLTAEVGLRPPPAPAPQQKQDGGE"}, "AlgW-V284A": {"biological_target": "T2, AlgW-V284A (Pseudomonas aeruginosa, UniProt Q9HVX1 30-389, V284A)", "T2 sequence": "T1 sequence with A237E, V255A"}, "AlgW-R374A": {"biological_target": "T3, AlgW-R374A (Pseudomonas aeruginosa, UniProt Q9HVX1 30-389, R374A)", "T3 sequence": "T1 sequence with A237E, R345A"}, "AlgW-W281A": {"biological_target": "T4, AlgW-W281A (Pseudomonas aeruginosa, UniProt Q9HVX1 30-389, W281A)", "T4 sequence": "T1 sequence with A237E, W252A"}, "AlgW-R347A": {"biological_target": "T5, AlgW-R347A (Pseudomonas aeruginosa, UniProt Q9HVX1 30-389, R347A)", "T5 sequence": "T1 sequence with A237E, R318A"}, "AlgW-Y212A": {"biological_target": "T6, AlgW-Y212A (Pseudomonas aeruginosa, UniProt Q9HVX1 30-389, Y212A)", "T6 sequence": "T1 sequence with Y183A, A237E"}, "[1]": {"biological_target": "T7, soluble AlgW (residues 30 to 389, without the N-terminal transmembrane segments) (Pseudomonas aeruginosa, UniProt Q9HVX1 30-389)", "T7 sequence": "T1 sequence with A237E"}}, "note": "Positions count from the first letter of the chain named."}
{"binder": "B1", "values": [{"measurement": "half-maximal activation concentration of the peptide activator (cleavage of Abz-VLAG-pNA)", "setting": "AlgW-E266A", "result": 1.08, "unit": "μM"}, {"measurement": "half-maximal activation concentration of the peptide activator (cleavage of Abz-VLAG-pNA)", "setting": "AlgW-V284A", "result": 3.56, "unit": "μM"}, {"measurement": "maximal cleavage activity of peptide-activated AlgW (Abz-VLAG-pNA)", "setting": "AlgW-V284A", "result": 63.1, "unit": "μM min^−1"}, {"measurement": "maximal cleavage activity of peptide-activated AlgW (Abz-VLAG-pNA)", "setting": "AlgW-R374A", "result": 5.45, "unit": "μM min^−1"}, {"measurement": "half-maximal activation concentration of the peptide activator (cleavage of Abz-VLAG-pNA)", "setting": "AlgW-W281A", "result": 1.51, "unit": "μM"}, {"measurement": "maximal cleavage activity of peptide-activated AlgW (Abz-VLAG-pNA)", "setting": "AlgW-W281A", "result": 10.3, "unit": "μM min^−1"}, {"measurement": "half-maximal activation concentration of the peptide activator (cleavage of Abz-VLAG-pNA)", "setting": "AlgW-R347A", "result": 1.85, "unit": "μM"}, {"measurement": "half-maximal activation concentration of the peptide activator (cleavage of Abz-VLAG-pNA)", "setting": "AlgW-Y212A", "result": 2.12, "unit": "μM"}, {"measurement": "half-maximal activation concentration of the peptide activator (cleavage of Abz-VLAG-pNA)", "setting": "[1]", "result": 2.02, "unit": "μM"}, {"measurement": "maximal cleavage activity of peptide-activated AlgW (Abz-VLAG-pNA)", "setting": "[1]", "result": 165, "unit": "μM min^−1"}]}
